# Assay results as given in patent US20200339692A1 (JIANGSU HENGRUI MEDICINE, published 2020).
# Positions count from the first letter of the chain named. In names and notes the source's numbering stands.
# B1: H18L61 (antibody, human IgG1, kappa, V domains shown)
# VH: QVQLVQSGAEVKKPGASVKVSCKASGYTFTSYWMHWVRQAPGQGLEWMGRISPSSGMAVYNEKFKNRVTMTRDTSTSTVYMELSSLRSEDTAVYYCARGGSSYDYFDYWGQGTTVTVSS
# VL: DIVLTQSPASLAVSPGQRATITCRASESVSIHGTHLMHWYQQKPGQPPKLLIYAASNLESGVPARFSGSGSGTDFTLTINPVEAEDTANYYCQQSFEDPLTFGQGTKLEIKR
# notes: also called 24D5 H18 and 24D5 L61
# B2: H12L64 (antibody, human IgG1, kappa, V domains shown)
# VH: B1 VH with S52T, M57F, V59M
# VL: B1 VL with A54V, N57Y, L58A, E59A
# notes: from the HRP00052 mutant library; also called 24D5 H12 and 24D5 L64
# B3: HRP00052-IgG1 (antibody)
# heavy: not shown
# light: DIVLTQSPASLAVSPGQRATITCRASESVSIHGTHLMHWYQQKPGQPPKLLIYAASNLESGVPARFSGSGSGTDFTLTINPVEAEDTANYYCQQSFEDPLTFGQGTKLEIKRTVAAPSVFIFPPSDEQLKSGTASVVCLLNNFYPREAKVQWKVDNALQSGNSQESVTEQDSKDSTYSLSSTLTLSKADYEKHKVYACEVTHQGLSSPVTKSFNRGEC
# B4: HRP00052: 24D5(GF)IgG4(AA)(S228P) (antibody)
# heavy: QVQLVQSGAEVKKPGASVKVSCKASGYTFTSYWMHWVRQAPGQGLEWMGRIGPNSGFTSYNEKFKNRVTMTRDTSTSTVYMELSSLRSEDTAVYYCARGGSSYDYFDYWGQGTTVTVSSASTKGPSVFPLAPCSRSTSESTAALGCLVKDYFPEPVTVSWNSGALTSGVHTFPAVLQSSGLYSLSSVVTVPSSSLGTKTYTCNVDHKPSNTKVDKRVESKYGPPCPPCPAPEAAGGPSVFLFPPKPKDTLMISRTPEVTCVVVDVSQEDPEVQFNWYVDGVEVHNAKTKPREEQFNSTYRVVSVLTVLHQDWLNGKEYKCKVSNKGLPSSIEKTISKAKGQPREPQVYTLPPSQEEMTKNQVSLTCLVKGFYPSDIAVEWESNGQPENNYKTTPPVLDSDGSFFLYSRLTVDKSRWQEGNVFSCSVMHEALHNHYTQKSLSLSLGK
# light: B3 light
# notes: Parent antibody from WO2017084495A1
# B5: H6L11 (antibody, human IgG1, kappa, V domains shown)
# VH: QVQLQESGPGLVKPSQTLSLTCTVSGGSISNDYWTWIRQHPGKGLEYIGFISRAGSTYNTPSLKGRVTISRDTSKNQFSLKLSSVTAADTAVYYCARSGGWLAPFDYWGRGTLVTVSS
# VL: DIVMTQSPDSLAVSLGERATINCKSSQSLFYHSNQKHSLAWYQQKPGQPPKLLIYGASTRESGVPDRFSGSGSGTDFTLTISSLQAEDVAVYYCQQYYGYPYTFGGGTKVEIKR
# notes: also called 9-2 H6 and 9-2 L11
# B6: H5L11 (antibody, human IgG1, kappa, V domains shown)
# VH: QVQLQESGPGLVKPSQTLSLTCTVSGGSISDGSAYWSWIRQHPGKGLEYIGFISRAGSTYNTPSLKGRVTISRDTSKNQFSLKLSSVTAADTAVYYCARSGGWLAPFDYWGRGTLVTVSS
# VL: B5 VL
# notes: from the HRP00049 mutant library; also called 9-2 H5 and 9-2 L11
# B7: H21L67 (antibody, human IgG1, kappa, V domains shown)
# VH: B1 VH with S31D, Y32K, H35M, S52T, M57F, V59M
# VL: B1 VL with A54V, L58V
# notes: also called 24D5 H21 and 24D5 L67
# B8: H21L69 (antibody, human IgG1, kappa, V domains shown)
# VH: B1 VH with S31D, Y32K, H35M, S52T, M57F, V59M
# VL: B1 VL with A54V, L58V, E59Y
# notes: also called 24D5 H21 and 24D5 L69
# B9: H21L66 (antibody, human IgG1, kappa, V domains shown)
# VH: B1 VH with S31D, Y32K, H35M, S52T, M57F, V59M
# VL: B1 VL with A54V, L58V, E59F
# notes: also called 24D5 H21 and 24D5 L66
# B10: H12L61 (antibody, human IgG1, kappa, V domains shown)
# VH: B1 VH with S52T, M57F, V59M
# VL: B1 VL
# notes: also called 24D5 H12 and 24D5 L61
# B11: H13L61 (antibody, human IgG1, kappa)
# heavy: not shown
# light: B3 light
# notes: also called 24D5 H13 and 24D5 L61
# B12: H16L61 (antibody, human IgG1, kappa)
# heavy: not shown
# light: B3 light
# notes: also called 24D5 H16 and 24D5 L61
# B13: H19L61 (antibody, human IgG1, kappa, V domains shown)
# VH: B1 VH with S54G, S55G, M57F, A58T, V59L
# VL: B1 VL
# notes: also called 24D5 H19 and 24D5 L61
# B14: H15L61 (antibody, human IgG1, kappa, V domains shown)
# VH: B1 VH with S25N, S31D, Y32K, H35M, S52T, M57F, V59M
# VL: B1 VL
# notes: also called 24D5 H15 and 24D5 L61
# B15: H17L61 (antibody, human IgG1, kappa, V domains shown)
# VH: B1 VH with S52G, S54N, S55L, M57W, V59M, F64Y, R87G
# VL: B1 VL
# notes: also called 24D5 H17 and 24D5 L61
# B16: H14L61 (antibody, human IgG1, kappa, V domains shown)
# VH: B1 VH with S52H, S55L, M57L, A58P, V59L
# VL: B1 VL
# notes: also called 24D5 H14 and 24D5 L61
# B17: H7L11 (antibody, human IgG1, kappa, V domains shown)
# VH: B5 VH with F50M, R53V, N59H
# VL: B5 VL
# notes: also called 9-2 H7 and 9-2 L11
# Target: T1, human PD-L1 (ligand blocking test) (human, UniProt Q9NZQ7 19-238, limits assumed)
# Assay: blocking of B7-1 binding to human PD-L1, PD-L1 1 ug/ml; competitor B7-1
# T1 sequence (Q9NZQ7 19-238 limits assumed): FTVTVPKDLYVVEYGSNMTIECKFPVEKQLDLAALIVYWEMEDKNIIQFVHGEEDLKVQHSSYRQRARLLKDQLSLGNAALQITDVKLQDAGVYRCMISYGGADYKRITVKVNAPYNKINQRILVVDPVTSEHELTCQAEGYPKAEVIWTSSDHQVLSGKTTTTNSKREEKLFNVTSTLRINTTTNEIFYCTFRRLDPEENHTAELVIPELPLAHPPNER
row,Binder,IC50 [ng/mL]
1,B1,1.38
2,B2,0.826
3,B3,1.65
4,B4,1.23
5,B5,1.69
6,B6,1.45

# Target: T1, human PD-L1 (ligand blocking test)
# Assay: blocking of human PD-L1/PD-1 binding, PD-L1 10 ug/ml; competitor PD-1
row,Binder,IC50 [ng/mL]
1,B1,0.228
2,B2,0.215
3,B3,0.338
4,B4,0.242
5,B5,0.29
6,B6,0.168

# Target: T2, mouse PD-L1 (Cat. #50010-M08H, Sino Biological) (mouse, UniProt Q9EP73 19-238)
# T2 construct: Bought recombinant protein used in the Biacore test
# Assay: SPR, Biacore X100
# Procedure: (§1) According to the method in the manual of human anti-capture kit (Cat. A BR-1008-39, GE), the human anti-capture antibody was covalently coupled to biosensor chip CM5 (Cat. #BR-1000-12, GE) so that a certain amount of human PD-L1 (Cat. #10084-H08H, Sino Biological) monkey PD-L1 (Cat. #90251-C08H, Sino Biological), mouse PD-L1 (Cat. #50010-M08H, Sino Biological) were affinity captured. The affinity of PD-L1 antibody reacting with PD-L1 was measured with Biacore X100, GE instrument.
# T2 sequence (Q9EP73 19-238 limits assumed, stated change not applied): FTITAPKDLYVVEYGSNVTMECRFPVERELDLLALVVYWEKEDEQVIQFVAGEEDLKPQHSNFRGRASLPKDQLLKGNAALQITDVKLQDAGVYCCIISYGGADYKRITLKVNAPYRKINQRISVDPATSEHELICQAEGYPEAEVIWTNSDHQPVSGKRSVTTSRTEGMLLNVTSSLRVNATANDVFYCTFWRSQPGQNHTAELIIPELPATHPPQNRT
row,Binder,binding result
1,B4,no binding

# Target: T3, human PD-L1 (Cat. #10084-H08H, Sino Biological) (human, UniProt Q9NZQ7 19-239)
# T3 construct: Bought recombinant protein used in the Biacore test; also called hPDL1; hPD-L1
# Assay: SPR, Biacore X100, 1:1 Langmuir
# Procedure: as §1
# T3 sequence (Q9NZQ7 19-239 limits assumed): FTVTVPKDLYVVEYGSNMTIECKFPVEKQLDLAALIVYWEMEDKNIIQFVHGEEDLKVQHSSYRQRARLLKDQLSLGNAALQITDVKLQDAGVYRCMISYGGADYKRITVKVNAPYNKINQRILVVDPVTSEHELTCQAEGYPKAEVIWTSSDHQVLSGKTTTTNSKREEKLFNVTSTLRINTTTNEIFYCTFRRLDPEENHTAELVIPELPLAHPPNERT
Binder,Kd [nM],koff [s⁻¹],kon [M⁻¹ s⁻¹]
B7,0.0522,0.00012,2.3e+06
B8,0.0563,0.000129,2.29e+06
B9,0.0533,0.000104,1.95e+06
B4,0.11,0.000139,1.26e+06

# Target: T4, monkey PD-L1 (Cat. #90251-C08H, Sino Biological) (monkey (cyno), UniProt G7PSE7 19-239)
# T4 construct: Bought recombinant protein used in the Biacore test; also called Monkey (cyno) PD-L1; Cyno PDL1
# Assay: SPR, Biacore X100, 1:1 Langmuir
# Procedure: as §1
# T4 sequence (G7PSE7 entry or part of it C08H C08H): as the sequence (Q9NZQ7 19-239 limits assumed) above, with A33T, A34S, S62N, R68Q, Q82R, F173L, T185A, T192I, H215L counted along it
Binder,Kd [nM],koff [s⁻¹],kon [M⁻¹ s⁻¹]
B7,0.0528,0.000124,2.35e+06
B8,0.0526,0.000119,2.27e+06
B9,0.0563,0.000122,2.17e+06
B4,0.114,0.000143,1.26e+06

# Target: T3, human PD-L1 (Cat. #10084-H08H, Sino …)
# Assay: SPR, Biacore X100, 1:1 Langmuir
# Remark: another data set of the same source
# Procedure: as §1
Binder,Kd [nM],koff [s⁻¹],kon [M⁻¹ s⁻¹]
B1,0.033,5.63e-05,1.71e+06
B10,0.0326,7.1e-05,2.18e+06
B11,0.0261,6.66e-05,2.55e+06
B12,0.0254,6.43e-05,2.53e+06
B2,0.0326,7.1e-05,2.18e+06
B13,0.0327,7.65e-05,2.34e+06
B14,0.0325,7.88e-05,2.43e+06
B15,0.0393,9.53e-05,2.43e+06
B16,0.038,9.1e-05,2.4e+06
B4,0.0672,0.000116,1.73e+06
B5,0.227,0.000113,495000
B6,0.203,0.000124,611000
B17,1.39,0.000389,281000

# Target: T2, mouse PD-L1 (Cat. #50010-M08H, Sino …)
# Assay: SPR, Biacore X100, 1:1 Langmuir
# Procedure: as §1
Binder,Kd [nM],koff [s⁻¹],kon [M⁻¹ s⁻¹]
B5,18.1,0.0119,655000
B6,69.6,0.0564,811000
B17,135,0.0182,135000

# Target: T4, monkey PD-L1 (Cat. #90251-C08H, Sino …)
# Assay: SPR, Biacore X100, 1:1 Langmuir
# Remark: another data set of the same source
# Procedure: as §1
Binder,Kd [nM],koff [s⁻¹],kon [M⁻¹ s⁻¹]
B1,0.048,7.68e-05,1.6e+06
B2,0.0458,8.38e-05,1.83e+06
B4,0.062,9.38e-05,1.51e+06
B5,0.318,0.000151,474000
B6,0.211,0.000121,572000

# Target: mouse PD-L1 (ligand blocking test) (mouse, UniProt Q9EP73 19-238, limits assumed)
# Assay: blocking of mouse PD-L1/PD-1 binding, PD-L1 5 ug/ml; competitor PD-1
# Sequence of mouse PD-L1 (ligand blocking test) (Q9EP73 19-238 limits assumed): as the sequence (Q9EP73 19-238 limits assumed, stated change not applied) above
row,Binder,IC50 [ng/mL]
1,B5,1.23
2,B6,0.927
